Results from publication PMC5929487.
Several values for one entry are separate records, joined by “and”; a condition that tells them apart may be missing. Equal values may be shown once. Values belong to the substance of their own block, whether it stands above or below them.

Experiments:
[1] = biological target: epidermal growth factor receptor (ovine pulmonary artery smooth muscle cells) (ovine (endogenous in PASMC)); assay: SDS-PAGE and Western blot of SDS-resistant dimer
[2] = biological target: epidermal growth factor receptor (rat lung) (rat (endogenous in lung tissue)); assay: SDS-PAGE and Western blot of SDS-resistant dimer
[3] = biological target: recombinant human catalase (human) (UniProt P04040); assay: native gel or EMSA
[4] = biological target: recombinant human catalase (human) (UniProt P04040); assay: SEC

stoichiometry N [1]: 2
Substance: epidermal growth factor receptor (ovine pulmonary artery smooth muscle cells)

stoichiometry N [2]: 2
Substance: epidermal growth factor receptor (rat lung)

stoichiometry N [3]: 4
stoichiometry N [4]: 4 and 3 and 2
Substance: recombinant human catalase (from UniProt P04040 1-527) (enzyme)
